Test [1] has as its target T1, Actin from rabbit muscle (Sigma A2522) (rabbit, UniProt P68135 1-377). In words: ELISA; solid-phase actin binding assay: 500 ng actin coated per well (MaxiSorp, carbonate-bicarbonate pH 9.5), blocked with 3% BSA; trT2-50, trT2-50m or peptides added in 1:2 dilutions from 500 ng/well in 100 μl TBS, 1 h 37°C; detected with rabbit anti-trT2-50 and goat anti-rabbit IgG-HRP, OD 655 nm; affinity by double reciprocal plot. To be noted: both partners purified.

Test [2] has as its target T1, Actin from rabbit muscle (Sigma A2522). In words: SPR; BIAcore 3000; actin amine-coupled to a CM5 chip; hRNASET2, trT2-50, trT2-50m or peptides injected at 5 concentrations, 10 μl/min, 25°C, HBS (10 mM Hepes, 150 mM NaCl, 3 mM EDTA, 0.005% Polysorbate 20); global fit with BIAevaluation 3.2. The conditions noted are these: both partners purified.

B1: trT2-50m (truncated hRNASET2 identical to trT2-50 but missing E120-V141) (domain or fragment)
chain: EGCNRSWPFNLEEIKDLLPEMRAYWPDVIHSFPNRSRFWKHEWEKHGTCAAQVDALNSQKKYFGRSLELYRADFKDALARVYGVIPKIQCLPPSQDEEVQTIGQIELCLTKQDQQLQNCTEPGEQPSPKQEVWLANGAAESRGLRVCEDGPVFYPPPKKTKH
Regarding B1, binding in test [1] was characterised by a dissociation constant (Kd) of 0.0345 µM. In test [2], the Kd – broadly, a measure of binding affinity in units of concentration – worked out at 0.5 µM; the koff (as a rule, the rate constant with which the complex falls apart) came out at 0.00969 s⁻¹; the kon – broadly, the second-order rate constant of association – turned out to be 19400 M⁻¹ s⁻¹.

For the origin of these results see publication PMC4341462, “Human RNASET2 derivatives as potential anti-angiogenic agents: actin binding sequence identification and characterization” (Oncoscience, 2014).
